We go through 5 molecules from publication PMC5995387, “Binding of EphrinA5 to RET receptor tyrosine kinase: An in vitro study” (PLoS ONE, 2018).

Values joined by “and” are separate entries in the source; they are usually repeats but may differ in a detail not shown here. Equal entries are not always repeated.

Assay [1] addresses EphA4 LBD (Homo sapiens) (UniProt P54764). Description: SPR. Particulars: cited from earlier work.
The target of assay [2] is EphA3-Fc (Mus musculus) (UniProt P29319). Particulars: cited from earlier work.
Assay [3] has as its target T1, zebrafish ephrinA5b extracellular domain (zefn-A5^ECD), Flag-His8-tagged (zebrafish (Danio rerio), UniProt P79728 21-204).
T1 construct: ephrin-A5b, zebrafish, extracellular domain, residues 21-204 of NCBI NP_571101.1; thrombin cleavage site between the tags and the protein (pK503.9 vector); also called Danio rerio efn-A5b; efn-A5b; not shown: Flag, N-terminal, kept; His8, N-terminal, kept
T1 sequence (looked up): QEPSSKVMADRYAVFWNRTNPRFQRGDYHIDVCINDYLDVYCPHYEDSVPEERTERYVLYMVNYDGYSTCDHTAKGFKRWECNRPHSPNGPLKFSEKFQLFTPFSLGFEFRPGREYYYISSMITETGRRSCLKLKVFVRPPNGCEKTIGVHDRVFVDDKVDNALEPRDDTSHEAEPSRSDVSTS
Description: BLI; BLItz, zefn-A5^ECD (140 μM) immobilised on Ni-NTA biosensor; SEC buffer with 0.5% Tween-20; 2 min association, 3 min dissociation; Kd from plateau values, one-site total binding model. Particulars: both partners purified. In general terms: BLI is a label-free optical method that tracks binding on a fibre tip over time.

In assay [4] the target is T2, zebrafish GDNF family receptor alpha 1 extracellular domain (zGFRα1^ECD), Flag-His8-tagged (zebrafish (Danio rerio), UniProt Q98TT9 31-351).
T2 construct: GDNF family receptor alpha 1, zebrafish, extracellular domain, residues 31-351 of NCBI NP_571805.1; not shown: Flag, N-terminal, kept; His8, N-terminal, kept
T2 sequence (looked up): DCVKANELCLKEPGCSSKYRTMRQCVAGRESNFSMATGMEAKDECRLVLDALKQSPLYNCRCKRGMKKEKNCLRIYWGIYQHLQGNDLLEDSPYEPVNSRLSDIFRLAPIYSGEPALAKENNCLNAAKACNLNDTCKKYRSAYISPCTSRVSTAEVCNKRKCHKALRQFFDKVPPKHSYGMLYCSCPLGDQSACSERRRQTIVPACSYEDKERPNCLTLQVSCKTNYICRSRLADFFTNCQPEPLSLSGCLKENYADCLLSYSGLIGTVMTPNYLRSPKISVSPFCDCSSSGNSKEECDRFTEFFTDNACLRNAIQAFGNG
Description: native gel or EMSA; Blue Native PAGE, 4-20% gradient gel, Coomassie-stained; purified proteins mixed and incubated 30 min at room temperature, run at 4 °C; zefn-A5^ECD 8 μM, molar ratio 2:1:1:1:1 (zefn-A5^ECD:zRET^ECD:zGDNF:zGFRα1^ECD:mEphA4^LBD); band of the ternary complex checked by LC-MS/MS. The settings on record: both partners purified. (In general: In EMSA bound probe runs differently from free probe, usually more slowly.)

EphA4 LBD (Homo sapiens), sequence (P54764 30-209): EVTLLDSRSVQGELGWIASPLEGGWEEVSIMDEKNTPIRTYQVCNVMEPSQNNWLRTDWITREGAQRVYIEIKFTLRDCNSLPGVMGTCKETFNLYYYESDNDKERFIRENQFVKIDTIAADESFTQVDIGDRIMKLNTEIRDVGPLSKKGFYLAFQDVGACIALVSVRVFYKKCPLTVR
EphA3-Fc (Mus musculus), sequence (P29319 21-540): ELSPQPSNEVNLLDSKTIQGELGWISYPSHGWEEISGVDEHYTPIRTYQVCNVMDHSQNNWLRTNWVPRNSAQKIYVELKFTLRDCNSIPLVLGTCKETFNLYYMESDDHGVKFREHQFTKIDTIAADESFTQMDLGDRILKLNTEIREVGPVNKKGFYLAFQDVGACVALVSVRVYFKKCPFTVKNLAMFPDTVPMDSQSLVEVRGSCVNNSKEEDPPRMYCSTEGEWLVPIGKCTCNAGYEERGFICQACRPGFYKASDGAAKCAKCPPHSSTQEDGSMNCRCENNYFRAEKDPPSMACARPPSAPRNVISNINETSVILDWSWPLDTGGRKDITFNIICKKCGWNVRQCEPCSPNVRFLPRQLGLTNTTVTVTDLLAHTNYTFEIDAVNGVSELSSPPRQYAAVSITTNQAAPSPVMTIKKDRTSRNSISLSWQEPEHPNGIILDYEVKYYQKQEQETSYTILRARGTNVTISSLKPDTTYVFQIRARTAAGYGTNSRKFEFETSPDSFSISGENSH

Consider ephrinA5 ECD (from UniProt P52803), for which the Kd in assay [1] was 360 nM.

Regarding ephrinA5 ECD (from UniProt O08543), in assay [2], the Kd is 8 nM.

B1: mouse EphA4 ligand-binding domain with C-terminal human IgG1 hinge and Fc (mEphA4^LBD) (Fc fusion, mouse (Mus musculus), UniProt Q03137-1 29-210, looked up)
chain: NEVTLLDSRSVQGELGWIASPLEGGWEEVSIMDEKNTPIRTYQVCNVMEASQNNWLRTDWITREGAQRVYIEIKFTLRDCNSLPGVMGTCKETFNLYYYESDNDKERFIRESQFGKIDTIAADESFTQVDIGDRIMKLNTEIRDVGPLSKKGFYLAFQDVGACIALVSVRVFYKKCPLTVRN
notes: concentrations were calculated for the monomeric form. pMA152a vector; also called Mus musculus EphA4; source: Hi5 insect cells, purified (Protein-A Sepharose); not shown: Fc (human IgG1, with hinge region), C-terminal, kept
On to B1, for which binding in assay [3] was characterised by a dissociation constant (Kd) of 180 ± 10 nM.

B2: zebrafish RET extracellular domain (zRET^ECD), Flag-His8-tagged (domain or fragment, zebrafish (Danio rerio), UniProt A8E7C6 22-626, looked up)
chain: GLYFPQRLYTENIYVGQQQGSPLLQVISMREFPTERPYFFLCSHRDAFTSWFHIDEASGVLYLNKTLEWSDFSSLRSGSVRSPKDLTLKVGVSSTPPMKVMCTILPTVEVKLSFINDTAPSCGQVELSTLCFPEKISNPHITENREPGALRQLRRFTHMSICPNYTISYGVVAGSSVPFAVDDSTSELVVTAQVDREEKEVYHLDIVCMVRTERNLEEVFRSLHVNIYDEDDNSPYVNGTDTEDVLVEFDRSEGTVFGTLFVYDRDTTPVYPTNQVQNKLVGTLMTNDSWIKNNFAIEHKFREEKAIFGNVRGTVHEYKLKLSQNLSVTEQRSFLLGYLVNDTTFPGPEGTVLLHFNVTVLPVPIRFSNVTYSFTVSQKATTYSQIGKVCVENCQKFKGIDVTYQLEIVDRNITAEAQSCYWAVSLAQNPNDNTGVLYVNDTKVLRRPECQELEYVVIAQEQQNKLQAKTQLTVSFQGEADSLKTDEPRFPACAEKRQRGDCEATRGLGAPTGRCQWRQGRDKGISKRYSTCSPNLGTCPDGYCDAIESKNISICPQDCSSEAIIGGYERDLYGIKAGHGTCYCFEGKCFCERDEPEDDICNDMC
notes: RET receptor tyrosine kinase, zebrafish, extracellular domain, residues 22-626 of NCBI NP_858048.2; thrombin cleavage site after the tags (pK503.9 vector); A mixture of monomer, dimer and some higher oligomers by native PAGE; not shown: Flag, N-terminal, kept; His8, N-terminal, kept
For B2, in assay [4], the “stoichiometry N” value is ~1 zRET^ECD per zGFRα1^ECD (ternary complex with zGDNF).

B3: mature zebrafish glial cell-derived neurotrophic factor (zGDNF), N-terminal Flag tag (ligand, zebrafish (Danio rerio), UniProt Q98TU0 90-235, looked up)
chain: SSDVEPQMKRDRVRQKAAANTEKSGGRGRGERKRSRGRARSRDDRVKGQGRGCLLKEIHLNVTDLDLGYRTKEELIFRYCSGPCHDAETNYDKILNNLTHNKKLDKDTPSRTCCRPIAFDDDISFLDDSLEYHTLKKHSAKKCACV
notes: GDNF, zebrafish, mature zGDNF, residues 90-236 of NCBI NP_571807.1; Written as zGDNF2 (dimer) in the complexes; concentrations were calculated for the monomeric form; also called zGDNF2; source: Hi5 insect cells (baculovirus), secreted, purified as previously described [24]; not shown: Flag, N-terminal, kept
Turning to B3, the “stoichiometry N” value in assay [4] is 1 zGDNF per zGFRα1^ECD (2:2, binary complex) and ~2 zGDNF per zGFRα1^ECD (ternary complex with zRET^ECD).

Broadly, the Kd is the free concentration of one partner at which half of the binding sites on the other are occupied at equilibrium, for simple one-to-one binding. Usually stoichiometry N stands for the number of molecules, sites or subunits per partner or assembly.
